Laboratory results: US7718774 (MacroGenics, dated 2010)

Biological target: T1, His-tagged 2Ig-B7H3 (R&D Systems) (UniProt Q5ZPR3-2 29-245, limits assumed)
T1 construct: the 2Ig form is an isoform of it; also called 2Ig-B7H3(His); xHis 2Ig (when captured by mouse anti-poly His antibody); not shown: His tag
T1 sequence (looked up): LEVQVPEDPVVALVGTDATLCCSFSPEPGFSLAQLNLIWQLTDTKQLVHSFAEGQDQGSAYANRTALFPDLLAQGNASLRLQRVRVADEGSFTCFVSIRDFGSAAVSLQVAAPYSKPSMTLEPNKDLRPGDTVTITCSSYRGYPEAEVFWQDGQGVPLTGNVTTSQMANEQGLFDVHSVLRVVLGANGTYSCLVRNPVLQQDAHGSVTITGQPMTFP
Experiment: ELISA, 5 µg/ml 2Ig-B7H3(His) captured by mouse anti-poly His antibody, streptavidin-HRP
Method: To further investigate mu-anti-TES binding to 4Ig-B7H3, ELISA crosslinking experiments with a His-tagged 2Ig-B7H3 (R&D Systems) were performed. 5 µg/ml of a capture antibody, mouse anti-poly His antibody, was coated on a 96-well plate as a control, a no coat well (naked well) was also used. The wells with the capture antibody were then blocked with HBSS+1% BSA. 5 µg/ml of 2Ig-B7H3(His) or 4Ig-B7H3(His) was introduced into naked wells or capture antibody-coated wells. As a control, 5 µg/ml of 2Ig-B7H3(Fc) was introduced into naked wells. The plate was then blocked again with HBSS+1% BSA. Then […] of biotinylated mu-anti-TES7, BLA8, PA20 or STO5 (another anti-B7H3 antibody that only recognizes the 4Ig form of B7H3) was introduced into the plate. The bound biotinylated antibodies were then detected with streptavidin-HRP using standard protocols.

binding result: no binding
B1: mu-anti-TES7 (antibody, V domains shown)
VH: QVQLQQSGPELVKPGTSVRISCKASGYTFTSYYIHWVKQRPGQGLEWIGWIYPGNVNTKYNENFKGKATLTADKSSSTAYMQLSSLTSEDSAVYFCARGGYFFDQWGQGTTLTVSS
VL: DVQITQSPSYLAASPGETITVNCRASESISKYLAWYQEKPGKTNKLLIYSGSTLQSGIPSRFSGSGSGSDFTLTISSLEPEDFAMYYCHQHNEFPLTFGAGTKLELK
notes: Mouse monoclonal IgG purified from hybridoma supernatant on protein G; also called mouse anti-huTES7 antibody; murine anti-TES7 antibody
